Test results taken from article PMC4187731, “WWP2-WWP1 Ubiquitin Ligase Complex Coordinated by PPM1G Maintains the Balance between Cellular p73 and ΔNp73 Levels” (Molecular and Cellular Biology, 2014).

Target: T1, MBP-WWP2 (UniProt O00308 1-870)
T1 construct: WWP2; also called bacterially purified WWP2; source: bacterially expressed; bacterially purified (methods, results) or bacterial cell lysate
Assay: pull-down; GST, GST-p73 or GST-ΔNp73 on glutathione-Sepharose beads incubated with MBP-WWP2 for 1 h at 4°C; immunoblot with MBP antibody
Conditions: both partners purified

T1 sequence (O00308 whole entry): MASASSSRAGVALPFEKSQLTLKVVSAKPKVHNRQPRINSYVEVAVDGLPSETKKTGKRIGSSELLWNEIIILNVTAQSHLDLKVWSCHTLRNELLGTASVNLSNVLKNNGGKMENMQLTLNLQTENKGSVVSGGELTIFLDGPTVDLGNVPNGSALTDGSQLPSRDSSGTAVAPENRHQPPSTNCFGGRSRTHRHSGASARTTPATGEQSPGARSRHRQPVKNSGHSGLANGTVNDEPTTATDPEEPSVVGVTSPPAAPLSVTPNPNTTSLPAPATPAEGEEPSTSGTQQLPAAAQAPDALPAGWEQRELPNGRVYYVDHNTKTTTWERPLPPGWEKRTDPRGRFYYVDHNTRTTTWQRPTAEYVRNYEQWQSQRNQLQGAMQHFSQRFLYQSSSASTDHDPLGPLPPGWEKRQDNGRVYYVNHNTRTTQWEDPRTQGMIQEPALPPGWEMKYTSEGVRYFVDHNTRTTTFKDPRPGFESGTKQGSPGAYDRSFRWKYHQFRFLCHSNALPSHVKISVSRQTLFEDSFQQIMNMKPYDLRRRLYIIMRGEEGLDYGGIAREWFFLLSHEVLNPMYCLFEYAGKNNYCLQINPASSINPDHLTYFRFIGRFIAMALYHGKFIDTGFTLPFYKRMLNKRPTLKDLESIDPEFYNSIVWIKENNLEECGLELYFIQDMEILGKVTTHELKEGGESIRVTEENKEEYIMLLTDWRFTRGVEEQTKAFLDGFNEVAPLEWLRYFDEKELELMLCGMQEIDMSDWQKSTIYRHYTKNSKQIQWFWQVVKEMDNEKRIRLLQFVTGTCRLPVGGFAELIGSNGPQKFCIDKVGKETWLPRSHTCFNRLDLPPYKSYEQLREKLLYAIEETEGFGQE

binding result | Binder
binds | GST-ΔNp73 (natural protein, UniProt O15350-8 1-587, looked up) MLYVGDPARHLATAQFNLLSSTMDQMSSRAASASPYTPEHAASVPTHSPYAQPSSTFDTMSPAPVIPSNTDYPGPHHFEVTFQQSSTAKSATWTYSPLLKKLYCQIAKTCPIQIKVSTPPPPGTAIRAMPVYKKAEHVTDVVKRCPNHELGRDFNEGQSAPASHLIRVEGNNLSQYVDDPVTGRQSVVVPYEPPQVGTEFTTILYNFMCNSSCVGGMNRRPILIIITLEMRDGQVLGRRSFEGRICACPGRDRKADEDHYREQQALNESSAKNGAASKRAFKQSPPAVPALGAGVKKRRHGDEDTYYLQVRGRENFEILMKLKESLELMELVPQPLVDSYRQQQQLLQRPSHLQPPSYGPVLSPMNKVHGGMNKLPSVNQLVGQPPPHSSAATPNLGPVGPGMLNNHGHAVPANGEMSSSHSAQSMVSGSHCTPPPPYHADPSLVSFLTGLGCPNCIEYFTSQGLQSIYHLQNLTIEDLGALKIPEQYRMTIWRGLQDLKQGHDYSTAQQLLRSSNAATISIGGSGELQRQRVMEAVHFRVRHTITIPNRGGPGGGPDEWADFGFDLPDCKARKQPIKEEFTEAEIH
binds | GST-p73 (natural protein, UniProt O15350 1-636, looked up, also called glutathione S-transferase (GST)–p73) MAQSTATSPDGGTTFEHLWSSLEPDSTYFDLPQSSRGNNEVVGGTDSSMDVFHLEGMTTSVMAQFNLLSSTMDQMSSRAASASPYTPEHAASVPTHSPYAQPSSTFDTMSPAPVIPSNTDYPGPHHFEVTFQQSSTAKSATWTYSPLLKKLYCQIAKTCPIQIKVSTPPPPGTAIRAMPVYKKAEHVTDVVKRCPNHELGRDFNEGQSAPASHLIRVEGNNLSQYVDDPVTGRQSVVVPYEPPQVGTEFTTILYNFMCNSSCVGGMNRRPILIIITLEMRDGQVLGRRSFEGRICACPGRDRKADEDHYREQQALNESSAKNGAASKRAFKQSPPAVPALGAGVKKRRHGDEDTYYLQVRGRENFEILMKLKESLELMELVPQPLVDSYRQQQQLLQRPSHLQPPSYGPVLSPMNKVHGGMNKLPSVNQLVGQPPPHSSAATPNLGPVGPGMLNNHGHAVPANGEMSSSHSAQSMVSGSHCTPPPPYHADPSLVSFLTGLGCPNCIEYFTSQGLQSIYHLQNLTIEDLGALKIPEQYRMTIWRGLQDLKQGHDYSTAQQLLRSSNAATISIGGSGELQRQRVMEAVHFRVRHTITIPNRGGPGGGPDEWADFGFDLPDCKARKQPIKEEFTEAEIH
